Experimental data as given in PMC5805711 (Scientific Reports, 2018).

How the values were obtained:
[1] = target: T1, ubiquitin phosphorylated at serine-65 (pUb) (UniProt P0CG48 1-76, phosphoserine at 65); assay: NMR titration; 15N-labeled Ub variant titrated with unlabeled UBA; amide CSPs in 1H-15N spectra, global fit to a single-site binding model; 23 °C, 20 mM sodium phosphate pH 6.8, 0.02% NaN3, 7% D2O; conditions: both partners purified
T1 construct: ubiquitin, the cut product of a ubiquitin precursor, phosphorylated at S65; Uniformly 15N-labelled for NMR; In solution two conformers in slow, pH-dependent exchange: native-like pUb^nat and alternate pUb^alt; both are this one molecule; also called S65 pUb; phosphorylated Ub

[2] = target: T2, wild-type ubiquitin (Ub^WT) (UniProt P0CG48 1-76); assay: as above; conditions: both partners purified
T2 construct: ubiquitin, the cut product of a ubiquitin precursor; last residue G76; Uniformly 15N-labelled for NMR; also called WT Ub; source: grown and purified using the standard Ub purification protocol; grown in 15N-enriched minimal media for NMR

Kd [1]: 8 ± 2.5 µM
Kd [2]: 4.9 ± 1.2 µM
B1: ubiquitin-associated domain (UBA) of human ubiquilin-1/hPLIC1, V545Y (domain or fragment, UniProt Q9UMX0 545-586, looked up)
chain: YRFQQQLEQLSAMGFLNREANLQALIATGGDINAAIERLLGS
notes: UBA domain of human ubiquilin-1 (hPLIC1) with V545Y; V545Y was introduced to allow concentration determination by absorbance at 280 nm; Unlabelled in the titrations; also called ubiquilin-1 UBA
